From publication PMC6112861 (Nature, 2018)

T1: Stt3 (S. cerevisiae, UniProt P39007 1-718, N-glycan at Asn539)
T1 sequence (looked up): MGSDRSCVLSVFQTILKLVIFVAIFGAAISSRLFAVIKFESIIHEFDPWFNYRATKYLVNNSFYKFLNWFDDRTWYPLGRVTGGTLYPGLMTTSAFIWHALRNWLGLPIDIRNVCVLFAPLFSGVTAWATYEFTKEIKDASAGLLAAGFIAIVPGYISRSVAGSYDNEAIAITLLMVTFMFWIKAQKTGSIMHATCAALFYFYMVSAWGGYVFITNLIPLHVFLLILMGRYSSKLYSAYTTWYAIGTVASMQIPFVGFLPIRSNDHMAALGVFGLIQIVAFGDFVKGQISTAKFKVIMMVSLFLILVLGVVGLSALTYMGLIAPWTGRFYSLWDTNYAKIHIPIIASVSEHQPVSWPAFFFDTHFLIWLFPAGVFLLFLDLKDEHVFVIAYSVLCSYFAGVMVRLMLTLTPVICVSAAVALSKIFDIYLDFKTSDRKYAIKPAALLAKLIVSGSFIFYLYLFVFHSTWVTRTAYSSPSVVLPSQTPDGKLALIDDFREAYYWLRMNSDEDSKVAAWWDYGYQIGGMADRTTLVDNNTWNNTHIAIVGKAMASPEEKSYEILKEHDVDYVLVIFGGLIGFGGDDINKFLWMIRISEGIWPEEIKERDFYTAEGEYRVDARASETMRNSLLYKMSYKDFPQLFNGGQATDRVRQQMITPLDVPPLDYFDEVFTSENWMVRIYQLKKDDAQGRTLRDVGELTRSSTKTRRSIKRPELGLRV

B1: Ost5 (natural protein, S. cerevisiae, UniProt Q92316 1-86, looked up)
chain: MTYEQLYKEFHSSKSFQPFIHLDTQPKFAICGLIVTLAVLSSALFAVGSKSSYIKKLFFYTILSVIGSLFAGLTTVFASNSFGVYV
B2: Swp1 (natural protein, S. cerevisiae, UniProt Q02795 20-286, looked up)
chain: YVAQDVHVSFPSTAGKSRVMIGKVEPRIGIDETVPTTITVEDPNEVIQVNFAIESTNKPFQNTLLIGLPNKNLEMAFEPEIKDNGKLSMYKYRIDLAKLDAALLQEASRSPEPIKATLILASSTAKPKENLFREILQLNLNFDVDHSDSSLVDKFGIKPEIHHIFHAEPKRVAKPIAVIFVLIIFITILSLIVTWLNSCAAAFNNIPTGVTAVYFLGFIATIVGFEVIFARYYLGTSIFETLFSSLYLGAPGLLTSTKFLRSFGQTI
B3: Ost1 (natural protein, S. cerevisiae, UniProt P41543 23-476, looked up)
chain: AQYEPPATWENVDYKRTIDVSNAYISETIEITIKNIASEPATEYFTAFESGIFSKVSFFSAYFTNEATFLNSQLLANSTTAPGDDGESEIRYGIIQFPNAISPQEEVSLVIKSFYNTVGIPYPEHVGMSEEQHLLWETNRLPLSAYDTKKASFTLIGSSSFEEYHPPNDESLLGKANGNSFEFGPWEDIPRFSSNETLAIVYSHNAPLNQVVNLRRDIWLSHWASTIQFEEYYELTNKAAKLSKGFSRLELMKQIQTQNMRQTHFVTVLDMLLPEGATDHYFTDLVGLVSTSHAERDHFFIRPRFPIFGGWNYNFTVGWTNKLSDFLHVSSGSDEKFVASIPILNGPPDTVYDNVELSVFLPEGAEIFDIDSPVPFTNVSIETQKSYFDLNKGHVKLTFSYRNLISQVANGQVLIKYDYPKSSFFKKPLSIACYIFTALMGVFVLKTLNMNVTN
modifications: N-glycan at Asn336
B4: Wbp1 (natural protein, S. cerevisiae, UniProt P33767 21-430, looked up)
chain: TQTSRTLVLYDQSTEPLEEYSVYLKDLEQRNYKLEYLDINSTSTTVDLYDKEQRLFDNIIVFPTKGGKNLARQIPVKQLIKFFENEGNILCMSSPGAVPNTIRLFLNELGIYPSPKGHVIRDYFSPSSEELVVSSNHLLNKYVYNARKSEDFVFGESSAALLENREQIVPILNAPRTSFTESKGKCNSWTSGSQGFLVVGFQNLNNARLVWIGSSDFLKNKNQDSNQEFAKELLKWTFNEKSVIKSVHAVHSHADGTSYDEEPYKIKDKVIYSVGFSEWNGEEWLPHIADDIQFELRQVDPYYRLTLSPSGNDSETQYYTTGEFILPDRHGVFTFLTDYRKIGLSFTTDKDVKAIRHLANDEYPRSWEISNSWVYISAICGVIVAWIFFVVSFVTTSSVGKKLETFKKTN
modifications: N-glycan at Asn60
B5: Ost2 (natural protein, S. cerevisiae, UniProt P46964 1-130, looked up)
chain: MAKAPKANTPKVTSTSSAVLTDFQETFKTSKRAYFAQIEKYPKLKLIDTFCFFLVLLGVIQCTFIILIRDNFPFNAFLAGFIICVGQFVLLMSLRLQLCNSFPGISKNRAFAEFIVASLILHFVCLHFIN
B6: Ost3 (natural protein, S. cerevisiae, UniProt P48439 23-350, looked up)
chain: MSSNRLLKLANKSPKKIIPLKDSSFENILAPPHENAYIVALFTATAPEIGCSLCLELESEYDTIVASWFDDHPDAKSSNSDTSIFFTKVNLEDPSKTIPKAFQFFQLNNVPRLFIFKPNSPSILDHSVISISTDTGSERMKQIIQAIKQFSQVNDFSLHLPMDWTPIITSTIITFITVLLFKKQSKLMFSIISSRIIWATLSTFFIICMISAYMFNQIRNTQLAGVGPKGEVMYFLPNEFQHQFAIETQVMVLIYGTLAALVVVLVKGIQFLRSHLYPETKKAYFIDAILASFCALFIYVFFAALTTVFTIKSPAYPFPLLRLSAPFK

Columns and labels:
Assay in all cases: cryo-EM structure
[1] = target: B3
[2] = target: T1, Stt3
[3] = target: B4
[4] = target: B2

| Binder | binding result [1] | binding result [2] | binding result [3] | binding result [4] |
| --- | --- | --- | --- | --- |
| B1 | binds | – | – | – |
| B2 | – | binds | binds | – |
| MISDEQLNSLAITFGIVMMTLIVIYHAVDSTMSPKN (natural protein, S. cerevisiae) [Ost4-FLAG] | – | binds | – | – |
| B3 | – | binds | – | – |
| B4 | – | binds | – | – |
| B5 | – | binds | binds | binds |
| B6 | – | binds | – | – |
